“Also recorded” adds a separate entry of the source.
What was measured:
[1] = tested on: IRE1α (XBP1s, pIRE1α) in BMDCs; test: IRE1α activation in BMDCs (immunoblot); format: cell-based, mouse
Procedure: Figure 1. Antigen pulsing of BMDCs activates IRE1α. (A) BMDCs were pulsed with ovalbumin (starting at 62.5 μg/ml and sequentially doubled) and analyzed by immunoblot (IB) for the indicated markers. (B) BMDCs were pulsed with ovalbumin (starting at 500 μg/ml and sequentially halved) or […] (1 μM), or stimulated with tunicamycin (1 μg/ml) or poly-I:C (25 μg/ml) for 4 h, and analyzed by IB. (C) BMDCs were pulsed with ovalbumin (500 μg/ml) for indicated time points and analyzed by IB. (D) BMDCs were pulsed for 4 h with ovalbumin or lysates derived from the indicated cell lines (500 μg/ml protein) and analyzed by IB. […] (F) Upon removal from bone marrow, total bone marrow cells were transfected with non-targeting control (NTC) or TAP1-targeting gRNAs, along with CRISPR/Cas9 delivery constructs. Cells were then subjected to standard BMDC-differentiation protocol, pulsed with ovalbumin (500 μg/ml) for 4 h, and analyzed by IB. All IB images are representative of at least two similar experiments, and molecular weights represent kD. Source data are available for this figure: SourceData F1.
For purification and differentiation of BMDCs, the femur and tibia bones of C57BL/6 mice were flushed with sterile PBS, and bone marrow cells were then cultured in RPMI1640 media as described above and further supplemented with […] β2-mercaptoethanol (Sigma-Aldrich), 20 ng/ml GM-CSF (BioLegend), and 10 ng/ml IL-4 (BioLegend) for 9 d, with media being replenished every 3 d. Where indicated, Flt3L-BMDCs were similarly generated using media supplemented with 200 ng/ml recombinant mouse Flt3L (PeproTech; [Brasel et al., 2000]). After 9 d of culture, BMDCs were routinely verified to be >90% CD11c^+ MHC-II^high by flow cytometry analysis.
Thapsigargin (Sigma-Aldrich) was used at 100 nM, tunicamycin (Sigma-Aldrich) was used at 5 μg/ml, MG132 (Sigma-Aldrich) was used at 5 μM, Amiloride (Sigma-Aldrich) was used at 10 μM, actinomycin D (Sigma-Aldrich) was used at 4 μg/ml, LPS (Sigma-Aldrich) was used at 10 μg/ml, and poly-I:C (Sigma-Aldrich) was used at 25 μg/ml. Ovalbumin (Sigma-Aldrich), EF-OVA (EndoFit; InvivoGen), […] peptide (Sigma-Aldrich), and human CD4-Fc fusion protein (generated in-house at Genentech) were dissolved in PBS prior to pulsing and used at indicated concentrations.
Cells were lysed in PBS solution supplemented with 1X radioimmunoprecipitation assay buffer (Millipore) and 2X Halt protease-phosphatase inhibitor cocktail (Thermo Fisher Scientific). Upon clearance, samples were analyzed by SDS-PAGE, electrotransferred to nitrocellulose membranes (Invitrogen), and blocked by 5% powdered milk in PBSt (PBS supplemented with 0.1% tween) solution. Development was conducted with ECL reagent (Thermo Fisher Scientific) and imaging was performed with the ChemiDoc ZRS+ imager (Bio-Rad). Antibodies used for Western blot analysis include IRE1α (3294, rabbit; Cell Signaling Technology), β-actin (5125, rabbit; Cell Signaling), GAPDH (97166, mouse; Cell Signaling), ATF6 (66563-1-Ig, mouse; ProteinTech), TAP1 (12341, rabbit; Cell Signaling), CHOP (2895, mouse; Cell Signaling), ATF4 (11815, rabbit; Cell Signaling), ovalbumin (P1-196, rabbit; Thermo Fisher Scientific), human Fc (ab977225, rabbit; Abcam), Myc tag (2272, rabbit; Cell Signaling), and biotin (5597, rabbit; Cell Signaling). IRE1α lumenal domain (mouse), XBP1s (rabbit), and pIRE1α (rabbit) antibodies were generated at Genentech. Secondary antibodies used were for mouse (715-035-150; The Jackson Laboratory) and rabbit (711-035-152; The Jackson Laboratory).

IRE1α LD-Fc = test: Plate-based ovalbumin binding to IRE1α LD-Fc; design: species or system human; conditions: LD-Fc 10 μg/ml, 2 h, room temperature; in words
Procedure: For experiments testing ovalbumin binding, a human LD-Fc was used at indicated concentrations. LD-Fc is comprised of amino acids M1-D443 of IRE1α fused C-terminally to a linker ([…]) followed by the human IgG1 hinge and Fc portion. Ovalbumin (Sigma-Aldrich) was dissolved in sterile PBS and used in native state or denatured as indicated by incubation at 95°C buffer for 10 min.
For plate-based binding experiments, native or heat-denatured ovalbumin at indicated concentrations was bound to a flat-bottom 96-well plate (Corning Inc.) with coating buffer (BioLegend), washed with PBSt, blocked with 1% BSA in PBS, and subsequently incubated with IRE1α LD-Fc (10 μg/ml) in binding buffer composed of PBS with 20 mM Hepes, 100 mM KOAc, and 0.2% tween-20 for 2 h at room temperature. Plates were washed again with PBSt and incubated with an anti-human Fc HRP-conjugated antibody (ab977225; Abcam). Development was performed with 3,3′,5,5′-Tetramethylbenzidine solution and terminated with Stop solution (BioLegend). Readings were taken with a SpectraMax M2 spectrometer (Molecular Devices).

B1: ovalbumin: classical protein antigen ovalbumin (Sigma-Aldrich) (protein)
chain: MGSIGAASMEFCFDVFKELKVHHANENIFYCPIAIMSALAMVYLGAKDSTRTQINKVVRFDKLPGFGDSIEAQCGTSVNVHSSLRDILNQITKPNDVYSFSLASRLYAEERYPILPEYLQCVKELYRGGLEPINFQTAADQARELINSWVESQTNGIIRNVLQPSSVDSQTAMVLVNAIVFKGLWEKAFKDEDTQAMPFRVTEQESKPVQMMYQIGLFRVASMASEKMKILELPFASGTMSMLVLLPDEVSGLEQLESIINFEKLTEWTSSNVMEERKIKVYLPRMKMEEKYNLTSVLMAMGITDVFSSSANLSGISSAESLKISQAVHAAHAEINEAGREVVGSAEAGVDAASVSEEFRADHPFLFCIKHIATNAVLFFGRCVSP
[1]; 4-h pulse, ovalbumin 500 μg/ml
  time of peak IRE1α phosphorylation: 2 h
  time of peak XBP1s protein: 2 to 4 h
[1]; GM-CSF + IL-4 BMDCs, immunoblot for XBP1s/pIRE1α, in words
  IRE1α activation: concentration- and time-dependent activation of IRE1α; also recorded: much weaker IRE1α activation than did the potent pharmacological ER-stressor tunicamycin; also recorded: only IRE1α exhibited substantial activation
IRE1α LD-Fc
  binding to immobilized IRE1α LD-Fc: little binding over background
